# Results taken from the supplement of paper PMC10567573.
# B1: C9orf9 (parent)
# chain: LTKASLKPRGCSKPPWRPPGGKL
# B2: VDR (parent)
# chain: LIKFQVGLKKLNLHEEEHVLLMAI
# Variants of: B1
# Assay: protein stability index of a GFP-peptide fusion (GPS, HEK-293T) (PSI 1-6); higher = more stable
# Conditions: c terminus: native
# 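Note: lentivirally expressed fusions sorted by FACS into six bins by GFP to DsRed ratio, PSI derived from sequencing read proportions per bin multiplied by bin number.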
row,Variant,protein stability index
1,QTKASLKPRGCSKPPWRPPGGKL [L1Q],3.17
2,MTKASLKPRGCSKPPWRPPGGKL [L1M],1.86
3,YTKASLKPRGCSKPPWRPPGGKL [L1Y],2.31
4,DTKASLKPRGCSKPPWRPPGGKL [L1D],1.76
5,RTKASLKPRGCSKPPWRPPGGKL [L1R],2.13
6,STKASLKPRGCSKPPWRPPGGKL [L1S],2.78
7,VTKASLKPRGCSKPPWRPPGGKL [L1V],1.8
8,KTKASLKPRGCSKPPWRPPGGKL [L1K],1.85
9,WTKASLKPRGCSKPPWRPPGGKL [L1W],1.89
10,ETKASLKPRGCSKPPWRPPGGKL [L1E],2.09
11,GTKASLKPRGCSKPPWRPPGGKL [L1G],2.5
12,ITKASLKPRGCSKPPWRPPGGKL [L1I],1.71
13,NTKASLKPRGCSKPPWRPPGGKL [L1N],3.8
14,FTKASLKPRGCSKPPWRPPGGKL [L1F],2.29
15,TTKASLKPRGCSKPPWRPPGGKL [L1T],1.85
16,PTKASLKPRGCSKPPWRPPGGKL [L1P],2.06

row,Variant,protein stability index
1,LHKASLKPRGCSKPPWRPPGGKL [T2H],2.12
2,LVKASLKPRGCSKPPWRPPGGKL [T2V],1.58
3,LCKASLKPRGCSKPPWRPPGGKL [T2C],1.96
4,LQKASLKPRGCSKPPWRPPGGKL [T2Q],1.32
5,LDKASLKPRGCSKPPWRPPGGKL [T2D],1.78
6,LAKASLKPRGCSKPPWRPPGGKL [T2A],1.67
7,LIKASLKPRGCSKPPWRPPGGKL [T2I],1.86
8,LRKASLKPRGCSKPPWRPPGGKL [T2R],1.85
9,LNKASLKPRGCSKPPWRPPGGKL [T2N],2.21
10,LLKASLKPRGCSKPPWRPPGGKL [T2L],2.26
11,LSKASLKPRGCSKPPWRPPGGKL [T2S],2.59
12,LGKASLKPRGCSKPPWRPPGGKL [T2G],1.36
13,LFKASLKPRGCSKPPWRPPGGKL [T2F],1.95
14,LPKASLKPRGCSKPPWRPPGGKL [T2P],2.72
15,LKKASLKPRGCSKPPWRPPGGKL [T2K],2.28

# Variants of: B2
# Assay: as above
# Conditions: c terminus: a fixed tail appended
row,Variant,protein stability index
1,LIKFQVGLKKLNLHEEEHVLLRAI [M22R],1.33
2,LIKFQVGLKKLNLHEEEHVLLNAI [M22N],2.99
3,LIKFQVGLKKLNLHEEEHVLLSAI [M22S],1.68
4,LIKFQVGLKKLNLHEEEHVLLFAI [M22F],2.88
5,LIKFQVGLKKLNLHEEEHVLLDAI [M22D],1.17
6,LIKFQVGLKKLNLHEEEHVLLLAI [M22L],2.66
7,LIKFQVGLKKLNLHEEEHVLLIAI [M22I],2.91
8,LIKFQVGLKKLNLHEEEHVLLEAI [M22E],1.15
9,LIKFQVGLKKLNLHEEEHVLLGAI [M22G],2.01
10,LIKFQVGLKKLNLHEEEHVLLQAI [M22Q],2.36
11,LIKFQVGLKKLNLHEEEHVLLPAI [M22P],2.09
12,LIKFQVGLKKLNLHEEEHVLLAAI [M22A],3.3
13,LIKFQVGLKKLNLHEEEHVLLWAI [M22W],2.81
14,LIKFQVGLKKLNLHEEEHVLLKAI [M22K],1.7
15,LIKFQVGLKKLNLHEEEHVLLHAI [M22H],2.06
16,LIKFQVGLKKLNLHEEEHVLLYAI [M22Y],2.25
17,LIKFQVGLKKLNLHEEEHVLLTAI [M22T],1.84
18,LIKFQVGLKKLNLHEEEHVLLCAI [M22C],2.61
19,LIKFQVGLKKLNLHEEEHVLMMAI [L21M],2.45
20,LIKFQVGLKKLNLHEEEHVLNMAI [L21N],1.68
21,LIKFQVGLKKLNLHEEEHVLPMAI [L21P],1.69
22,LIKFQVGLKKLNLHEEEHVLGMAI [L21G],2.76

row,Variant,protein stability index
1,LIKFQVGLKKLNLHEEEHVLVMAI [L21V],4.64
2,LIKFQVGLKKLNLHEEEHVLQMAI [L21Q],2.02
3,LIKFQVGLKKLNLHEEEHVLDMAI [L21D],1.85
4,LIKFQVGLKKLNLHEEEHVLCMAI [L21C],3.18
5,LIKFQVGLKKLNLHEEEHVLYMAI [L21Y],2.92
6,LIKFQVGLKKLNLHEEEHVLSMAI [L21S],2.08
7,LIKFQVGLKKLNLHEEEHVLKMAI [L21K],3.43
8,LIKFQVGLKKLNLHEEEHVLLMDI [A23D],3.29
9,LIKFQVGLKKLNLHEEEHVLLMLI [A23L],3.49
10,LIKFQVGLKKLNLHEEEHVLLMEI [A23E],2.23
11,LIKFQVGLKKLNLHEEEHVLLMRI [A23R],2.37
12,LIKFQVGLKKLNLHEEEHVLLMYI [A23Y],3.16
13,LIKFQVGLKKLNLHEEEHVLLMHI [A23H],2.49
14,LIKFQVGLKKLNLHEEEHVLLMVI [A23V],1.85
15,LIKFQVGLKKLNLHEEEHVTLMAI [L20T],2.4
16,LIKFQVGLKKLNLHEEEHVFLMAI [L20F],2.29
17,LIKFQVGLKKLNLHEEEHVYLMAI [L20Y],2.9
18,LIKFQVGLKKLNLHEEEHVALMAI [L20A],2.05
19,LIKFQVGLKKLNLHEEEHVHLMAI [L20H],1.86
20,LIKFQVGLKKLNLHEEEHVDLMAI [L20D],1.19
21,LIKFQVGLKKLNLHEEEHVMLMAI [L20M],2.15
22,LIKFQVGLKKLNLHEEEHVQLMAI [L20Q],1.81

row,Variant,protein stability index
1,LIKFQVGLKKLNLHEEEHVPLMAI [L20P],2.31
2,LIKFQVGLKKLNLHEEEHVILMAI [L20I],2.83
3,LIKFQVGLKKLNLHEEEHVGLMAI [L20G],4.03
4,LIKFQVGLKKLNLHEEEHVCLMAI [L20C],3.71
5,LIKFQVGLKKLNLHEEEHVKLMAI [L20K],1.91
6,LIKFQVGLKKLNLHEEEHVELMAI [L20E],2.24
7,LIKFQVGLKKLNLHEEEHVVLMAI [L20V],1.01
8,LIKFQVGLKKLNLHEEEHVLLMAC [I24C],3.08
9,LIKFQVGLKKLNLHEEEHVLLMAR [I24R],2.35
10,LIKFQVGLKKLNLHEEEHVLLMAE [I24E],2.55
11,LIKFQVGLKKLNLHEEEHVLLMAP [I24P],1.21
12,LIKFQVGLKKLNLHEEEHVLLMAD [I24D],1.87
13,LIKFQVGLKKLNLHEEEHVLLMAF [I24F],3.74
14,LIKFQVGLKKLNLHEEEHVLLMAQ [I24Q],2.48
15,LIKFQVGLKKLNLHEEEHVLLMAS [I24S],1.97
16,LIKFQVGLKKLNLHEEEHVLLMAK [I24K],2.69
17,LIKFQVGLKKLNLHEEEHVLLMAA [I24A],2.8
18,LIKFQVGLKKLNLHEEEHVLLMAW [I24W],2.33
19,LIKFQVGLKKLNLHEEEHVLLMAN [I24N],2.74
20,LIKFQVGLKKLNLHEEEHVLLMAY [I24Y],3.26
21,LIKFQVGLKKLNLHEEEHVLLMAT [I24T],1.85
